Measurements: patent publication US9212226B2, “Amino acid sequences directed against CXCR4 and other GPCRs and compounds comprising the same” (Ablynx N.V., priority 2008, dated 2015)
Entries after “also recorded” stand apart in the source; their conditions may differ. Values belong to the molecule of their own block, whether it stands above or below them.

Key:
Format in all cases: cell-based
CXCR4 = CXCR4 (Homo sapiens, UniProt P61073); assay: Inositol phosphate accumulation assay in HEK293T cells expressing CXCR4 and Gαqi5; conditions: for inhibition of the CXCL12-induced accumulation of inositol phosphates: CXCL12 30 nM; for agonist activity, inositol phosphate accumulation: up to a concentration of 100 nM
Method: (§1) HEK293T cells were maintained at 37° C. in a humidified 5% CO2, 95% air atmosphere in Dulbecco's modified Eagle's medium (DMEM) containing 2 mM L-glutamine, 50 IU/ml penicillin, 50 μg/ml streptomycin, and 10% (v/v) fetal calf serum. Jurkat cells were cultured in a humidified 5% CO2, 95% air atmosphere in a 1:1 mixture of Dulbecco's modified Eagle's medium (DMEM) and Ham's F12 medium containing 2 mM L-glutamine, 50 IU/ml penicillin, 50 μg/ml streptomycin, and 10% (v/v) fetal calf serum. […] [^125 I]-Labelling— Radiolabeling of Nanobodies with ^125I was performed using the Iodo-gen method (Pierce, Rockford, Ill.) according to the manufacturer's protocol. ^125I-labeled Nanobodies was separated from free iodine (>99%) using a Sephadex G-25 gel filtration column (Amersham Biosciences, Piscataway, N.J.). […] Competition Binding Assays— Membranes from HEK293T cells transiently expressing CXCR3 or CXCR4 were prepared 48 h after transfection as follows. Cells were washed and scraped from the cell culture dishes with ice-cold PBS containing 1 mm EDTA. The scraped cells were pelleted at 1500×g for 10 min at 4° C. The pellet was washed and then resuspended in ice-cold membrane buffer (15 mM Tris, pH 7.5, 1 mM EGTA, 0.3 mM EDTA, and 2 mM MgCl2). The cell suspension was homogenized by 10 strokes at 1200 rpm using a Teflon-glass homogenizer and rotor and further subjected to three freeze-thaw cycles using liquid nitrogen. Membranes were separated by centrifugation at 40,000 g for 25 min at 4° C. The membrane pellet was washed and resuspended in ice-cold Tris-sucrose buffer (20 mM Tris, pH 7.4, and 250 mM sucrose) and frozen in liquid nitrogen. The total protein was determined using a Bradford assay (Bio-Rad). Periplasmas (1:10) or ligands were pre-incubated with membranes in binding buffer (50 mM HEPES (pH 7.4), 1 mM CaCl2, 5 mM MgCl2, 100 mM NaCl, 0.5% bovine serum albumin) supplemented with 0.5% BSA for 1 h at 22° C. before the addition of [^125I]-CXCL12 (40 pM) or [^125I]-238D2 (3 nM) or [^125I]-238D4 (3 nM) for additional 2 h at 22° C. […] Membranes were then harvested over polyethylenimine (0.5%)-treated Whatman GF/C filter plates and washed three times with ice cold binding buffer containing 500 mM NaCl. Plates were counted by liquid scintillation. Inositol Phosphate Accumulation Assay— 24 hours post transfection with pcDNA3.1-CXCR4 and pcDNA1-HA-mG {alpha} qi5 (see Verzijl et al, 2008 supra), 250.000 cells were seeded into 24-wells plates and labelled overnight using inositol-free minimal essential medium supplemented with 1 μCi myo-[2-^3H]-inositol. The next day, the cells were washed once to remove not incorporated myo-[2-^3H]-inositol. […] In agonist experiments, the cells were directly stimulated with test compounds and LiCl (10 mM) in assay buffer for 2 h at 37° C. The stimulation was stopped by aspirating the stimulation medium and adding ice-cold 10 mM formic acid. The accumulated inositol phosphates were isolated by anion exchange chromatography and counted by liquid scintillation. CRE Reporter Gene Assay— HEK239T cells were transfected with pCRE/β-galactosidase (Chen W, Shields T S, Stork P J S, Cone R D (1995) Anal Biochem 226:349-354) and plasmids (pcDEF3 or pcDNA3.1) encoding the indicated receptors. 40,000 transfected cells per well were seeded into 96 well plates and grown in DMEM supplemented with 10% fetal calf serum. The medium was replaced 32 h after transfection by serum-free DMEM supplemented with 0.5% bovine serum albumin and ligands as indicated. Following 16 h of ligand incubation, the medium was removed, the cells were lysed in 100 μl of assay buffer (100 mM sodium phosphate buffer at pH 8.0, 4 mM 2-nitrophenol-β-D-pyranoside, 0.5% Triton X-100, 2 mM MgSO4, 0.1 mM MnCl2, and 40 mM β-mercaptoethanol) and incubated at room temperature. […]

CXCR1 = biological target: T1, CXCR1 (Homo sapiens, UniProt P25024); assay: CRE/β-galactosidase reporter gene selectivity screen, CXCR1; conditions: up to 2.5, forskolin 3 μM, agonist at 50-80% Emax
T1 sequence (P25024 1-350): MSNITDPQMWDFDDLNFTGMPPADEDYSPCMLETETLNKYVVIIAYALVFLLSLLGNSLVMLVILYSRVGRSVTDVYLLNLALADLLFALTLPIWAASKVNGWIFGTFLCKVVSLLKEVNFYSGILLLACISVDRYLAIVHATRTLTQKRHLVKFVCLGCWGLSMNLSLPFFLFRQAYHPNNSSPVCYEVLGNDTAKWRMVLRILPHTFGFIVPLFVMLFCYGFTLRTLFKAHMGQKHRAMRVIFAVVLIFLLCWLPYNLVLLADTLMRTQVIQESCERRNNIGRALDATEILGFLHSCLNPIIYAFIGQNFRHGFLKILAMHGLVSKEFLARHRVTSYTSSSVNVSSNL
Method: (§2) Data are shown as means±S.E.M. (n=2-3).
(§3) HEK293T cells were maintained at 37° C. in a humidified 5% CO2, 95% air atmosphere in Dulbecco's modified Eagle's medium (DMEM) containing 2 mM L-glutamine, 50 IU/ml penicillin, 50 μg/ml streptomycin, and 10% (v/v) fetal calf serum. Jurkat cells were cultured in a humidified 5% CO2, 95% air atmosphere in a 1:1 mixture of Dulbecco's modified Eagle's medium (DMEM) and Ham's F12 medium containing 2 mM L-glutamine, 50 IU/ml penicillin, 50 μg/ml streptomycin, and 10% (v/v) fetal calf serum. […] [^125 I]-Labelling— Radiolabeling of Nanobodies with ^125I was performed using the Iodo-gen method (Pierce, Rockford, Ill.) according to the manufacturer's protocol. ^125I-labeled Nanobodies was separated from free iodine (>99%) using a Sephadex G-25 gel filtration column (Amersham Biosciences, Piscataway, N.J.). […] Competition Binding Assays— Membranes from HEK293T cells transiently expressing CXCR3 or CXCR4 were prepared 48 h after transfection as follows. Cells were washed and scraped from the cell culture dishes with ice-cold PBS containing 1 mm EDTA. The scraped cells were pelleted at 1500×g for 10 min at 4° C. […] The total protein was determined using a Bradford assay (Bio-Rad). […] Plates were counted by liquid scintillation. […] The accumulated inositol phosphates were isolated by anion exchange chromatography and counted by liquid scintillation. […]

CXCR6 = CXCR6 (Homo sapiens, UniProt O00574); assay: CRE/β-galactosidase reporter gene selectivity screen, CXCR6; conditions: up to 2.5, forskolin 3 μM, agonist at 50-80% Emax
Method: as §2, §3

CCR7 = biological target: T2, CCR7 (Homo sapiens, UniProt P32248); assay: CRE/β-galactosidase reporter gene selectivity screen, CCR7; conditions: up to 2.5, forskolin 3 μM, agonist at 50-80% Emax
T2 sequence (P32248 25-378): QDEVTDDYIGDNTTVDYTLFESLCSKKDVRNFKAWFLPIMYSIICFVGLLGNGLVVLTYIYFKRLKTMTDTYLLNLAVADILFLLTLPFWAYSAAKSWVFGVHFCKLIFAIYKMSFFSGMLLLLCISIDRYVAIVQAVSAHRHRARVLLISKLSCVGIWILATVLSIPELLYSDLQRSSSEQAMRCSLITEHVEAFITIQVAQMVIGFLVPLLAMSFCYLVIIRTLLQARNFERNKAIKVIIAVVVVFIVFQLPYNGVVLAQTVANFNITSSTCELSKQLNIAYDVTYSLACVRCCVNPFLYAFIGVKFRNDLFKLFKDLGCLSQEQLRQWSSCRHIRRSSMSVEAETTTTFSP

histamine H4 receptors = histamine H4 receptors (Homo sapiens, UniProt Q9H3N8); assay: CRE/β-galactosidase reporter gene selectivity screen, histamine H4 receptor; conditions: up to 2.5, forskolin 3 μM, agonist at 50-80% Emax
[1] = test system: Jurkat cells endogenously expressing CXCR4; assay: Chemotaxis assay (ChemoTx plates) with Jurkat cells towards CXCL12
Method: as §1

CXCR4 (N119A) = CXCR4 (N119A) (Homo sapiens, UniProt P61073, N119A); assay: Basal inositol phosphate accumulation in HEK293T cells expressing CXCR4 (N119A); conditions: ligand-induced alteration of basal inositol phosphate accumulation
Method: as §1, with “indicated.” for “indicated. Following 16 h of ligand incubation, the medium was removed, the cells were lysed in 100 μl of assay buffer (100 mM sodium phosphate buffer at pH 8.0, 4 mM 2-nitrophenol-β-D-pyranoside, 0.5% Triton X-100, 2 mM MgSO4, 0.1 mM MnCl2, and 40 mM β-mercaptoethanol) and incubated at room temperature.”

[2] = HEK293T-CXCR4-Gαqi5/30 nM CXCL12, mean ± S.E.M.
[3] = Jurkat/0.3 nM CXCL12, monovalent Nanobodies, mean ± S.E.M.

CXCR4, sequence (P61073 whole entry): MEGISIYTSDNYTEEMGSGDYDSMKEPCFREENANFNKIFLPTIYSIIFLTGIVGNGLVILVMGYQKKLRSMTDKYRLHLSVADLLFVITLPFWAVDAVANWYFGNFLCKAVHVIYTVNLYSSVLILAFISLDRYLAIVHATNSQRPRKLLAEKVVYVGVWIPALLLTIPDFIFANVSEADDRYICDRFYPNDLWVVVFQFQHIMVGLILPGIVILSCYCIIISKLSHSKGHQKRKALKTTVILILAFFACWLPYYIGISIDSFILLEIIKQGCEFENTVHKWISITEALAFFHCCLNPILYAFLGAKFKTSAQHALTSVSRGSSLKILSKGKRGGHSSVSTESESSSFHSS
CXCR6, sequence (O00574 whole entry, species assumed): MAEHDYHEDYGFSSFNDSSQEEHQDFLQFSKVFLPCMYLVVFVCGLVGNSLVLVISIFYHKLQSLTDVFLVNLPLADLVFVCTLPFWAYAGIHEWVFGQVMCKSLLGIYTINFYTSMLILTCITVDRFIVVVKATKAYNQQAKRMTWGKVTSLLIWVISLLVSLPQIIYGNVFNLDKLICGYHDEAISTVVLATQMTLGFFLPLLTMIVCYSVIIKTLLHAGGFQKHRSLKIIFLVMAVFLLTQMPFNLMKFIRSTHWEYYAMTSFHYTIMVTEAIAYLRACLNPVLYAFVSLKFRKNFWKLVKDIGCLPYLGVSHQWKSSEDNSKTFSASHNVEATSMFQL
CXCR4 (N119A), sequence (P61073 whole entry N119A): as the sequence (P61073 whole entry) above, with N119A counted along it

inhibition of the CXCL12-induced accumulation of inositol phosphates (CXCR4): fully inhibited
Imax (%), IP accumulation (CXCR4; [2]): 90 ± 5%
B1: 238D4: Nanobody (VHH) raised against human CXCR4, SEQ ID NO: 239 (protein)
VHH: EVQLMESGGGLVQAGGSLRLSCAASGRTFNNYAMGWFRRAPGKEREFVAAITRSGVRSGVSAIYGDSVKDRFTISRDNAKNTLYLQMNSLKPEDTAVYTCAASAIGSGALRRFEYDYSGQGTQVTVSS
modifications: Nanobody, Nanobody constructs or fragments thereof
agonist activity, inositol phosphate accumulation (CXCR4): no intrinsic activity; also recorded: No agonist activity
effect on agonist-induced response at CXCR1 (CXCR1): do not act as agonists or antagonists; also recorded: do not alter
effect on agonist-induced response at CXCR6 (CXCR6): do not act as agonists or antagonists; also recorded: do not alter
effect on agonist-induced response at CCR7 (CCR7): do not act as agonists or antagonists; also recorded: do not alter
effect on agonist-induced response at histamine H4 receptors (histamine H4 receptors): do not act as agonists or antagonists; also recorded: do not alter
inhibition of migration of Jurkat cells towards CXCL12 ([1]; 300 pM CXCL12): concentration-dependently inhibited
Imax (%), Chemotaxis [1, 3]: 101 ± 4%
induction of migration of Jurkat cells (agonism) ([1]; test compound in lower compartment): unable to induce any significant migration
functional profile at CXCR4 (N119A) (CXCR4 (N119A)): inverse antagonists; also recorded: partial inverse agonists

inhibition of the CXCL12-induced accumulation of inositol phosphates (CXCR4): fully inhibited
Imax (%), IP accumulation (CXCR4; [2]): 86 ± 12%
pKi or pIC50, IP accumulation (CXCR4; [2]): 8.51 ± 0.11
pKi or pIC50, Chemotaxis [1, 3]: 8.33 ± 0.16
B2: 238D2: Nanobody (VHH) raised against human CXCR4, SEQ ID NO: 238 (protein)
VHH: EVQLVESGGGLVQTGGSLRLSCAASGFTFSSYAMSWVRQAPGKGLEWVSGIKSSGDSTRYAGSVKGRFTISRDNAKNMLYLQMYSLKPEDTAVYYCAKSRVSRTGLYTYDNRGQGTQVTVSS
modifications: Nanobody, Nanobody constructs or fragments thereof
agonist activity, inositol phosphate accumulation (CXCR4): no intrinsic activity; also recorded: No agonist activity
effect on agonist-induced response at CXCR1 (CXCR1): do not act as agonists or antagonists; also recorded: do not alter
effect on agonist-induced response at CXCR6 (CXCR6): do not act as agonists or antagonists; also recorded: do not alter
effect on agonist-induced response at CCR7 (CCR7): do not act as agonists or antagonists; also recorded: do not alter
effect on agonist-induced response at histamine H4 receptors (histamine H4 receptors): do not act as agonists or antagonists; also recorded: do not alter
Imax (%), Chemotaxis [1, 3]: 106 ± 2%
functional profile at CXCR4 (N119A) (CXCR4 (N119A)): neutral antagonist; also recorded: Neither significant agonistic nor inverse antagonistic activity
